Patent US20120276102A1 (Pfizer, published 2012)
Substitutions are numbered along the chain they refer to.

B1: AbG (antibody, IgG1, V domains shown)
VH: QVQLQESGPGLVKPSETLSLTCAVSGYSISSGYYWGWIRQPPGKGLEWIGSISHTGNTYYNPPLKSRVTISVDTSKNQFSLKLSSVTAADTAVYYCARGGGISRPEYWGQGTLVTVSS
VL: SSELTQDPAVSVALGQTVRITCQGDSLRTYYASWYQQKPGQAPVLVIYGKHKRPSGIPDRFSGSSSGNTASLTITGAQAEDEADYYCVTRSVKGNPHVLFGGGTQLTVL
notes: As for AbA: IgG1/lambda, CDR3 graft, residue limits derived; also called VHP/VL18
B2: AbB (antibody, IgG1, V domains shown)
VH: B1 VH
VL: B1 VL with T89S, S91A, K93V
notes: As for AbA: IgG1/lambda, CDR3 graft, residue limits derived; also called VHP/VL3
B3: AbJ (antibody, IgG1, V domains shown)
VH: B1 VH with G99F, G100M, I102F, S103G
VL: B1 VL with V88N, T89S, S91D, V92S, K93S
notes: As for AbA: IgG1/lambda, CDR3 graft, residue limits derived; also called VH3/VLP
B4: AbA (antibody, V domains shown)
VH: B1 VH
VL: B1 VL with T89A, K93V
notes: Human IgG1/lambda, transiently expressed; also called VHP/VL2
B5: AbC (antibody, IgG1, V domains shown)
VH: B1 VH
VL: B1 VL with V88S, T89S, V92R, K93H
notes: As for AbA: IgG1/lambda, CDR3 graft, residue limits derived; also called VHP/VL11
B6: AbW (antibody, human IgG1, V domains shown)
VH: B1 VH with G99F, G100M, I102F, S103G
VL: B1 VL
B7: AbV (antibody, human IgG1, V domains shown)
VH: B1 VH with G99F, G100M, I102F, S103G
VL: B1 VL with T89A, K93V

Each binder was assayed against T1, human IL-2Rβ (human, UniProt P14784 27-239) (assay: SPR, Ab captured).
T1 sequence (looked up): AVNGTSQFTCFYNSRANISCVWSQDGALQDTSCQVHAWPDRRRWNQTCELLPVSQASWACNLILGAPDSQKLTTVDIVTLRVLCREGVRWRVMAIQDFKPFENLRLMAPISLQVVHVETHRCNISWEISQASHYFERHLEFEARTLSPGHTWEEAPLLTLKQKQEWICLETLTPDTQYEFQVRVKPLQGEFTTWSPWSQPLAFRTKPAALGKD
Experimental: (§1) The specificity of binding of a subset of transiently expressed anti-IL-21R binding proteins (here antibodies) was tested on a BIACORE™ 2000 surface plasmon resonance instrument. Anti-human-IgG, anti-murine immunoglobulin antibodies, and murine IL-21R-H/F were immobilized onto a research-grade carboxymethyl-dextran chip (CM5) using standard amine coupling. The sensor chip surface was activated with EDC/NHS for 7 min at a flow rate of 20 μl/min. The first flow cell was used as reference surface to correct for bulk refractive index, matrix effects, and nonspecific binding. […] Remaining activated groups were blocked with 1.0 M ethanolamine (pH 8.0). The molecular weights of the anti-human IgG and the anti-murine IgG were both 150 kD, and the molecular weight of the IL-21R monomer was 27 kD.
(§2) Conditioned media containing anti-IL-21R antibodies and antibody controls (murine anti-human IL-2Rβ and murine anti-human IL-4R(R&D Systems, Minneapolis, Minn.); human anti-human IL-13 (Wyeth, Cambridge, Mass.)) were diluted in HBS/EP buffer supplemented with 0.2% bovine serum and injected onto all four flow cells of the BIACORE™ chip, capturing 500-700 (RU) of antibody on the species-appropriate capture antibody. Following a 5 sec washing period, 50 nM solutions of a positive control protein (murine IL-21R-H/F), two human proteins related to IL-21R (human IL-2Rβ and human sIL-4R(R&D Systems)), or an unrelated His/FLAG-tagged protein (human IL-13-H/F) were injected over the captured antibodies on the chip. The association and dissociation phases were monitored for 120 and 180 sec, respectively, followed by two 5 μl injections of glycine (pH 1.5) to regenerate a fully active capturing surface. All binding experiments were done at 25° C. in HBS/EP buffer. Blank and buffer effects were subtracted for each sensorgram using double referencing.
B1: no binding (tested: 50 nM).
B2: no binding (tested: 50 nM).
B3: no binding (tested: 50 nM).
B4: no binding (tested: 50 nM).
B5: no binding (tested: 50 nM).

The binders below were run against T2, human soluble IL-4R (human, UniProt P24394 26-232, limits assumed) (assay: SPR, Ab captured).
T2 construct: also called human sIL-4R
Experimental: as §1, §2
B1: no binding (tested: 50 nM).
B2: no binding (tested: 50 nM).
B3: no binding (tested: 50 nM).
B4: no binding (tested: 50 nM).
B5: no binding (tested: 50 nM).

The binders below were run against T3, human IL-13-His/FLAG (human, UniProt P35225 35-146, limits assumed) (assay: SPR, Ab captured).
T3 construct: Unrelated His/FLAG-tagged control; also called human IL-13-H/F
T3 sequence (P35225 35-146 limits assumed): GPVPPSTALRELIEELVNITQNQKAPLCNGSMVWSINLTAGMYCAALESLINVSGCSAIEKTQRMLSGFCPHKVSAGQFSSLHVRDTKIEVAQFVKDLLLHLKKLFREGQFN
Experimental: as §1, §2
B1: no binding (tested: 50 nM).
B2: no binding (tested: 50 nM).
B3: no binding (tested: 50 nM).
B4: no binding (tested: 50 nM).
B5: no binding (tested: 50 nM).

The binders below were run against T4, human IL-21R expressed on cells (human, UniProt Q9HBE5 20-538) (assay: cell ELISA, CHO cells).
T4 construct: also called human IL-21R-BaF3; human IL-21R-TF1
T4 sequence (Q9HBE5 20-538 limits assumed): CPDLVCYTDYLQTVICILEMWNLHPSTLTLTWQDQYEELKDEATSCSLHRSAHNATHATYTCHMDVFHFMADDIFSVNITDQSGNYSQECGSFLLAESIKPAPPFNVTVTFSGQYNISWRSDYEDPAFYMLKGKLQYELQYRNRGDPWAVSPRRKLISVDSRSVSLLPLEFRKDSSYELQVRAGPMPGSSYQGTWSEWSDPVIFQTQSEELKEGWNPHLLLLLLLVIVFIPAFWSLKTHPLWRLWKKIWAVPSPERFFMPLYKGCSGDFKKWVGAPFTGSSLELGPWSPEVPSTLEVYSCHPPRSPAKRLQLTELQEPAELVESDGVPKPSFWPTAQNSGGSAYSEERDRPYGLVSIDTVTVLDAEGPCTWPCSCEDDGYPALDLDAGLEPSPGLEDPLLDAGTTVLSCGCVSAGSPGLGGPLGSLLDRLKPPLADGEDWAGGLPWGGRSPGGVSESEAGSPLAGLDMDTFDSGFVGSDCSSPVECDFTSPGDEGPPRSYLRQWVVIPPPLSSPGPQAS
Experimental: (§3) A subset of binding proteins was tested for binding to rat, cynomolgus monkey, human IL-21R, or human IL-2R-γ common subunit expressed transiently on the surfaces of CHO-PA-Dukx cells. Cells were transfected 48 hr prior to the assay. On the day of the assay, cells were washed gently 5× in PBS containing 0.9 mM CaCl₂ and 0.45 mM MgCl₂ (PBS/CaMg) on an automated plate washer (Titertek, Huntsville, Ala.), and blocked for 1 hr at RT in PBS/CaMg/5% nonfat dry milk. Conditioned media from transiently expressed anti-IL-21R IgGs were serially diluted in blocking buffer and added to the cells in the blocked plates for 1 hr at RT. Cells were washed 5× with PBS/CaMg and then incubated with horseradish peroxidase-conjugated anti-human IgG for 1 hr at RT. Cells were then washed 10× in PBS/CaMg and all of the wash buffer was removed. Cells were incubated with 100 μl TMB until the color reaction reached saturation, stopped with 100 μl of 0.18 M H₂SO₄, and read at A450 on a Perkin Elmer ENVISION™ plate reader.
With B1 the “A450 (13 nM Ab)” value was 1.35 A450.
With B2 the “A450 (13 nM Ab)” value was 1.15 A450.
With B3 the “A450 (13 nM Ab)” value was 1.22 A450.
For B4, the “A450 (13 nM Ab)” value was 1.2 A450.
In the case of B5, the “A450 (13 nM Ab)” value is reported as 1.22 A450.

Each binder was assayed against T5, rat IL-21R expressed on cells (rat) (assay: cell ELISA, CHO cells).
T5 construct: whole, on cells
Experimental: as §3
With B1 the “A450 (13 nM Ab)” value was 1.11 A450.
With B2 the “A450 (13 nM Ab)” value was 1.09 A450.
B3 was tested, and the “A450 (13 nM Ab)” value was 1.26 A450.
For B4, the “A450 (13 nM Ab)” value was 1.12 A450.
In the case of B5, the “A450 (13 nM Ab)” value is reported as 0.999 A450.

Each binder was assayed against T6, cynomolgus monkey IL-21R expressed on cells (cynomolgus monkey, UniProt G7Q0S8 41-559) (assay: cell ELISA, CHO cells).
T6 construct: whole, on cells
Experimental: as §3
With B1 the “A450 (13 nM Ab)” value was 1.3 A450.
With B2 the “A450 (13 nM Ab)” value was 1.33 A450.
B3 was tested, and the “A450 (13 nM Ab)” value was 1.27 A450.
B4 was tested, and the “A450 (13 nM Ab)” value was 1.35 A450.
B5 was tested, and the “A450 (13 nM Ab)” value was 1.28 A450.

These binders were tested against T7, human gamma (γ) common chain expressed on CHO cells (human, UniProt P31785 23-369) (assay: cell ELISA, CHO cells).
T7 construct: whole, on cells; Control protein; also called human IL-2R-γ common subunit; human γ-common
T7 sequence (looked up): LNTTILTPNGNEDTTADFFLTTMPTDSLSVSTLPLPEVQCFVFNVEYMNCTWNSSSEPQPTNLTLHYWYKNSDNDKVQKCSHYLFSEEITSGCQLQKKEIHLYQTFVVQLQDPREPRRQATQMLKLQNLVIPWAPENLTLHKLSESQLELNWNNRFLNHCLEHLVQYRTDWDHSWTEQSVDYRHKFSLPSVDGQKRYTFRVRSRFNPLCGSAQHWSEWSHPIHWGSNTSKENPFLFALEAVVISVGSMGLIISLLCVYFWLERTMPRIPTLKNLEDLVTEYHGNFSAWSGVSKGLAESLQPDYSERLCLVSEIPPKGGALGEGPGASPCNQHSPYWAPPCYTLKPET
Experimental: as §3
In the case of B1, the “A450 (13 nM Ab)” value is reported as 0.108 A450.
In the case of B2, the “A450 (13 nM Ab)” value is reported as 0.107 A450.
B3 was tested, and the “A450 (13 nM Ab)” value was 0.126 A450.
With B4 the “A450 (13 nM Ab)” value was 0.111 A450.
In the case of B5, the “A450 (13 nM Ab)” value is reported as 0.137 A450.

These binders were tested against T4, human IL-21R expressed on cells (assay: cell-based or functional assay).
B1 was tested, and the “Human IL-21R-BaF3 Proliferation IC50” value was 770 pM and the “Human IL-21R-TF1 Proliferation IC50” value was 3840 pM.
With B2 the “Human IL-21R-BaF3 Proliferation IC50” value was 1140 pM and the “Human IL-21R-TF1 Proliferation IC50” value was 3340 pM.
B3 was tested, and the “Human IL-21R-BaF3 Proliferation IC50” value was 650 pM and the “Human IL-21R-TF1 Proliferation IC50” value was 4600 pM.
In the case of B4, the “Human IL-21R-BaF3 Proliferation IC50” value is reported as 970 pM and the “Human IL-21R-TF1 Proliferation IC50” value is reported as 3800 pM.
For B5, the “Human IL-21R-BaF3 Proliferation IC50” value was 820 pM and the “Human IL-21R-TF1 Proliferation IC50” value was 3360 pM.

Each binder was assayed against murine IL-21R expressed on cells (murine, UniProt Q9JHX3 20-529) (assay: cell-based or functional assay).
Sequence of murine IL-21R expressed on cells (Q9JHX3 20-529 limits assumed): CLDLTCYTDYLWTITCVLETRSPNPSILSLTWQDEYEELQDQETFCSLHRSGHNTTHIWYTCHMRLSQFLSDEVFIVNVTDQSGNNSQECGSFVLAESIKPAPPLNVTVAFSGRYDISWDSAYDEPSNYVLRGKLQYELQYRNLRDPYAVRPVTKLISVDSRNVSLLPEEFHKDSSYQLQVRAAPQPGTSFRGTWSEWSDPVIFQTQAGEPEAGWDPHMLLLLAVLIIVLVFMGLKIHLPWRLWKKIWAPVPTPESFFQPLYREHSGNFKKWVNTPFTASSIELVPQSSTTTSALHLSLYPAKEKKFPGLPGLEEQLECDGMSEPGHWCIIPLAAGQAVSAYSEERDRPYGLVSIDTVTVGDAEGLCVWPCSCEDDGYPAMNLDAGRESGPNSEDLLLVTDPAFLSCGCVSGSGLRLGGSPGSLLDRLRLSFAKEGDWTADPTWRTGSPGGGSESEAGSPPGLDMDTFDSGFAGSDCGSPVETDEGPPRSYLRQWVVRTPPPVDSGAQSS
For B1, the “Murine IL-21R-BaF3 Proliferation IC50” value was 70 pM.
In the case of B2, the “Murine IL-21R-BaF3 Proliferation IC50” value is reported as 421 pM.
With B3 the “Murine IL-21R-BaF3 Proliferation IC50” value was 400 pM.
In the case of B4, the “Murine IL-21R-BaF3 Proliferation IC50” value is reported as 80 pM.
With B5 the “Murine IL-21R-BaF3 Proliferation IC50” value was 30 pM.

The binders below were run against T5, rat IL-21R expressed on cells (assay: cell-based or functional assay).
In the case of B6, the “IC50, rat T cell proliferation, experiment 1” value is reported as 159000 pM and the “IC50, rat T cell proliferation, experiment 2” value is reported as 94700 pM.
In the case of B7, the “IC50, rat T cell proliferation, experiment 1” value is reported as 70600 pM and the “IC50, rat T cell proliferation, experiment 2” value is reported as 59200 pM.

The binders below were run against T5, rat IL-21R expressed on cells (assay: cell-based ELISA on CHO cells transiently expressing rat IL-21R; HRP anti-human IgG, A450).
Experimental: (§4) FIG. 6(a-l) depicts the binding of 21 anti-IL-21R IgGs to CHO cells transiently expressing human IL-21R (FIGS. 6a-c), rat IL-21R (FIGS. 6d-f), cynomolgus monkey IL-21R (FIGS. 6g-i), and human gamma common chain (FIGS. 6j-1). CHO cells were transiently transfected with IL-21R or the control gamma common chain, and binding was detected with HRP-conjugated anti-human IgG in a cell-based ELISA.
as §3
For B1, the “EC50 (read off the curve)” value was ~900 pM.
For B2, the “EC50 (read off the curve)” value was ~2000 pM.
With B3 the “EC50 (read off the curve)” value was ~400 pM.
B4 was tested, and the “EC50 (read off the curve)” value was ~800 pM.
B5 was tested, and the “EC50 (read off the curve)” value was ~1000 pM.

These binders were tested against T4, human IL-21R expressed on cells (assay: cell-based ELISA on CHO cells transiently expressing human IL-21R; HRP anti-human IgG, A450).
Experimental: as §4, §3
For B1, the “EC50 (read off the curve)” value was ~500 pM.
With B2 the “EC50 (read off the curve)” value was ~1000 pM.
With B3 the “EC50 (read off the curve)” value was ~300 pM.
With B4 the “EC50 (read off the curve)” value was ~500 pM.
B5 was tested, and the “EC50 (read off the curve)” value was ~700 pM.

The binders below were run against T6, cynomolgus monkey IL-21R expressed on … (assay: cell-based ELISA on CHO cells transiently expressing cynomolgus monkey IL-21R; HRP anti-human IgG, A450).
Experimental: as §4, §3
With B1 the “EC50 (read off the curve)” value was ~500 pM.
In the case of B2, the “EC50 (read off the curve)” value is reported as ~600 pM.
For B3, the “EC50 (read off the curve)” value was ~300 pM.
In the case of B4, the “EC50 (read off the curve)” value is reported as ~500 pM.
In the case of B5, the “EC50 (read off the curve)” value is reported as ~2000 pM.

The binders below were run against T7, human gamma (γ) common chain expressed … (assay: cell-based ELISA on CHO cells transiently expressing human gamma common chain; HRP anti-human IgG, A450).
Experimental: as §4, §3
B1: no binding (tested: 40 nM).
B2: no binding (tested: 40 nM).
B3: no binding (tested: 13 nM).
B4: no binding (tested: 40 nM).
B5: no binding (tested: 40 nM).
